Results reported in patent US20050244406A1 (G2 THERAPIES, published 2005).

Key:
[1] = biological target: T1, C5aR N-terminal peptide (residues 9-29), PEPI (human); test: ELISA, PEPI coated at 1 µg/ml
T1 construct: Synthetic peptide (Biosource), residues 9-29 of C5aR; also called C5aR N-terminal peptide 9-29
T1 peptide: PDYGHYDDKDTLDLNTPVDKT
Procedure: ELISAs were performed as described in Current Protocols in Immunology (Unit 2.1) (Edited by J. F. Coligan, A. M. Kruisbeek, D. B. Margulies, E. M. Shevach and W. Strober), John Wiley and Sons, New York. Briefly, 96-well flat bottom ELISA plates (Maxisorp; Nunc) were coated with 1 μg/ml protein (PEPI or OPG) in PBS at 37° C. for 1 hr, then blocked with BSA at 4° C. overnight. The plates were then washed, incubated with antibodies, washed and incubated with peroxidase-conjugated sheep anti-mouse IgG antibody. The substrate used was TMB substrate reagent (PharMingen).
ELISA assays were performed as described above to measure the reactivity of MAbs 6C12, 12D4, 7F3, with PEPI and OPG. OPG is a member of the TNF-receptor superfamily which binds specifically to its ligand TNFSF11/OPGL. More specifically, OPG is an osteoblast-secreted decoy receptor that functions as a negative regulator of bone resorption.
MAbs 6C12, 12D4 and 7F3 were used in the ELISA as purified proteins at a concentration of 1 μg/mL. MAb 9C1 (which is specific for OPG) and MAb 11B9 (which recognises PEPI) were used as positive controls. These control MAbs were used in the form of undiluted tissue culture supernatant.

CXCR2 = biological target: T2, CXCR2 (UniProt P25025 1-360, limits assumed); test: flow cytometry on transfected L1.2 cells
T2 construct: whole, on cells; also called L1.2CXCR2
T2 sequence (looked up): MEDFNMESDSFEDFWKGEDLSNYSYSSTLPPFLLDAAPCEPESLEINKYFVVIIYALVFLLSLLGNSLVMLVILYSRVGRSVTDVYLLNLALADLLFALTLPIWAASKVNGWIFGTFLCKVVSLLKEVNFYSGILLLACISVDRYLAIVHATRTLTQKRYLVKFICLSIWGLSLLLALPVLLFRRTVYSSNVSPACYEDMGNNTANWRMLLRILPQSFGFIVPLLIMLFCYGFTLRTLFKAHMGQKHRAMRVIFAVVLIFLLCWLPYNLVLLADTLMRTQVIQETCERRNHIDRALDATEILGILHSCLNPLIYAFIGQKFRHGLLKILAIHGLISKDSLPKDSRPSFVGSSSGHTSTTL

CX3CR1 (V28) = biological target: T3, CX3CR1 (V28) (UniProt P49238 1-355, limits assumed); test: flow cytometry on transfected L1.2 cells
T3 construct: whole, on cells; also called L1.2 V28
T3 sequence (looked up): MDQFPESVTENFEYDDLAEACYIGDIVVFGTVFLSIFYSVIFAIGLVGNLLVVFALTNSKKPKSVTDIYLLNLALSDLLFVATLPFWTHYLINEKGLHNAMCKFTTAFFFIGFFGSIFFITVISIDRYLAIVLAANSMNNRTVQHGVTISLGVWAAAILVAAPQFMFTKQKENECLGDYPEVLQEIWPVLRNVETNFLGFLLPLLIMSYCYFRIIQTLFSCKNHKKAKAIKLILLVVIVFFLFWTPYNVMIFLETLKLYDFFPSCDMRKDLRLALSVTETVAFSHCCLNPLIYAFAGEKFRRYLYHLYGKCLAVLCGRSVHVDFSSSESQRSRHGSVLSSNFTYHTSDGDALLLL

human C5aR [2] = biological target: T4, human C5aR (human, UniProt P21730 1-350); test: cell-based or functional assay
T4 chain: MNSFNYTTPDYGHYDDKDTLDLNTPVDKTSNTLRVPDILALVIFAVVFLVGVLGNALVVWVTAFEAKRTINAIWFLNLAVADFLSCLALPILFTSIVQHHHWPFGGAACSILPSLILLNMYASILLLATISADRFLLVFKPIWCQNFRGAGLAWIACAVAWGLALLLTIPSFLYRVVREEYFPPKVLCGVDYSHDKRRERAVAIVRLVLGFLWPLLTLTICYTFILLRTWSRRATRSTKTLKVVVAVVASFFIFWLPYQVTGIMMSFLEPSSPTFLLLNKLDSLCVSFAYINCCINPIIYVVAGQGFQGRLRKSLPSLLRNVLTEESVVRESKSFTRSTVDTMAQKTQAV

human C5aR [3] = biological target: T4, human C5aR; test: flow cytometry on L1.2 cells with human C5aR, MAb 50 ug/ml, with PEPI 1-100 µM
Procedure: Anti-C5aR MAbs were added at 50 ug/ml, to a C5aR N-terminal synthetically produced peptide (residues 9-29) known as “PEPI” (Biosource; Eldridge) at concentrations ranging from 1 to 100 μM. Mouse L1.2 cells transfected with human C5a receptor and resuspended in 1% bovine serine albumin (BSA; GibcoBRL) (1×10^7/ml) were then added to give a total volume of 100 μl. The cells were incubated for 30 min at 4° C. and washed once with 0.1% BSA. Fluorescein (FITC) conjugated, sheep anti-mouse IgG, F(ab′)2 (Jackson Immunoresearch Laboratories Inc.) was used as a secondary Ab (1:200) and incubated for 15 min at 4° C., followed by an additional washing step with 0.1% BSA The cells were resuspended in 0.1% BSA and analysed by flow cytometry.

human C5aR [4] = biological target: T4, human C5aR; test: flow cytometry on L1.2 C5aR transfectants

Binder | binding result [1] | binding result (CXCR2) | binding result (CX3CR1 (V28)) | neutrophil migration towards C5a (human C5aR [2]) [fold reduction] | binding result (human C5aR [3]) | binding result (human C5aR [4])
MAb 7F3 (antibody, V domains shown, Murine monoclonal antibody from hybridoma ECACC 00110609; also called monoclonal antibody 7F3) VH: QVQLQQSGPELVKPGASVKISCKASGYAFSNSWMNWVKQRPGKGLEWIGRIYPGDGDTKYNGKFKGKATLTADKSSSTAYMQLSSLTSEDSAVYFCARFLLISTVTAVDYWGQGTTLTVSS VL: DVVMTQSPLSLPVSLGNQASISCRSSQSLVHSNGNTYLHWYLQKPGQSPKLLIYKVSNRFSGVPDRFSGSGSGTDFSLKISRVEAEDLGVYFCSQSTLVPLTFGAGTKLELK | no binding (tested: 1 µg/mL) | no binding | no binding | 140 | – | –
MAb 6C12 (antibody, IgG3, V domains shown, Murine monoclonal antibody from hybridoma ECACC 02090226; also called 6C12 M12) VH: QVQLQQSGPEVVKPGASVKISCKASGYAFSRSWMNWVKQRPGKGLEWIGRIDAGDGDTKYNGKFKGKATLTADKSSSTAYMQLSSLTSEDSAVYFCASLLITTVVGAMDYWGQGTSVTVSS VL: DVVMTQIPLSLPVSLGDQTSISCRSSQSLIHSNGNTYLHWYLQKPGQSPKLLIYKVSNRFSGVPDRFSGSGSGTDFTLKISRVEAEDMGVYFCSQSTHVPPTFGGGTKLEIK | no binding (tested: 1 µg/mL) | no binding | no binding | – | binds | –
MAb 12D4 (antibody, IgG3, V domains shown, Murine monoclonal antibody from hybridoma ECACC 02090227; also called 12D4-P9) VH: QVQLKESGPGLVAPSQSLSITCTVSGFSLTSYGVDWVRQSPGKGLEWLGVIWGVGSTNYNSALKSRLSISKDNSKSQVFLKMNSLQTDDAAMYYCASHYGYDGLGFAYWGQGTLVTVSV VL: DVVMTQTPLSLPVSLGDQASISCRSSQSLVHSSGNTYLHWYLQKPGQSPKLLIYKVSNRFSGVPDRFSGSGSGTHFTLKISRVEAEDLGIYFCSQSTLVPPTFGGGTKLEIK | no binding (tested: 1 µg/mL) | no binding | no binding | – | – | binds
